This is an account of results in article PMC10273338.

The target of this test is T1, HspB8, Q9UJY1.
T1 chain: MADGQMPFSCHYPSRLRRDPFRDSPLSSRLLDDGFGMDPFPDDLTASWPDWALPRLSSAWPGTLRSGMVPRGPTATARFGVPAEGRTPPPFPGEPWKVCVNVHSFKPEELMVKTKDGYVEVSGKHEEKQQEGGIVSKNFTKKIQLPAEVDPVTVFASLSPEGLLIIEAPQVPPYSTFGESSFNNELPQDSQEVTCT
Description: SPR; BIACORE X; HspB8 amine-coupled to a CM5 chip (7400 RU); running buffer 10 mM HEPES pH 7.4, 150 mM NaCl, 3 mM EDTA, 0.005% P20; 10 uL/min; Langmuir 1:1 fit. The settings on record: remark: other sources report otherwise. For orientation: Surface plasmon resonance follows binding to a sensor surface in real time, without labels.

B1: HspB8, Q9UJY1 1-196 (natural protein)
chain: MADGQMPFSCHYPSRLRRDPFRDSPLSSRLLDDGFGMDPFPDDLTASWPDWALPRLSSAWPGTLRSGMVPRGPTATARFGVPAEGRTPPPFPGEPWKVCVNVHSFKPEELMVKTKDGYVEVSGKHEEKQQEGGIVSKNFTKKIQLPAEVDPVTVFASLSPEGLLIIEAPQVPPYSTFGESSFNNELPQDSQEVTCT
A word on the Kd: it is a measure of binding affinity in units of concentration. Lower therefore signals tighter binding. Broadly, the koff is the rate constant with which the complex falls apart. Low readings indicate a long-lived complex, high ones a short-lived complex. As usually defined, the kon is the second-order rate constant of association. The molecule B1 came in with a Ka of 5.2e+06 M⁻¹, a Kd of 190 nM, a koff of 0.00048 s⁻¹ and a kon of 2500 M⁻¹ s⁻¹.
